One experiment relates to HT1080 cells. Put plainly: DNA synthesis in HT1080 cells. The format is cell-based, human. To be noted: overexpression in HT1080 cells; data not shown.
The next experiment deals with cathepsin B (Homo sapiens, UniProt P07858). To be noted: mutant lacks the cysteine inhibitor motif; reference 23; cited from earlier work.
Another experiment relates to NRK kidney fibroblasts. Description: NRK cell invasion through Matrigel matrices. The format is cell-based, rat. To be noted: expression in NRK cells, 48 hours, p<0.05; for TGF-β-stimulated NRK cell invasion through synthetic basement membranes: TGF-β1 5 ng/ml. The protocol: This hypothesis was tested by infecting NRK cells with bicistronic retrovirus encoding either CystC or Δ14CystC to determine their effects on NRK anchorage-independent growth stimulated by TGF-β. Briefly, rat NRK kidney fibroblasts were infected with control (i.e., pMSCV-IRES-GFP), CystC, or Δ14CystC retroviral supernatants, and the resulting infected cells were isolated by GFP fluorescence on a MoFlo cell sorter 48 hours later. Control, CystC-, and Δ14CystC-expressing NRK cells were cultured in soft-agar in the absence or presence of TGF-β1 (5 ng/ml) for 7 d, whereupon NRK colony formation was quantified by light microscopy. In addition, control, CystC-, and Δ14CystC-expressing NRK cells were allowed to invade through Matrigel matrices in the absence or presence of TGF-β1 (5 ng/ml) for 48 hours.

In experiment [1] the test system is 3T3-L1 cells. Put plainly: DNA synthesis in 3T3-L1 cells. In kind it is cell-based, murine. Conditions: data not shown.
Experiment [2] concerns 3T3-L1 cells. Put plainly: Migration of 3T3-L1 cells to fibronectin. The format is cell-based, murine. To be noted: data not shown.
In another experiment the target is TGF-β1 (Homo sapiens, UniProt P01137). Put plainly: Co-immunoprecipitation and affinity pull-down of CystC with TGF-β1. To be noted: data not shown. The format is binding.
Sequence of TGF-β1 (P01137 279-390 limits assumed, species assumed): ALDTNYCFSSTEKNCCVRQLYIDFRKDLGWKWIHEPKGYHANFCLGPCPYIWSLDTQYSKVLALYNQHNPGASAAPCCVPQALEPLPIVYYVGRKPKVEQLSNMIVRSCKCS

B1: Δ14CystC: human CystC with deletion of positions 80 to 93 (conserved cysteine proteinase inhibitor motif), retrovirally expressed and secreted (protein)
chain: MAGPLRAPLLLLAILAVALAVSPAAGSSPGKPPRLVGGPMDASVEEEGVRRALDFAVGEYNKASNDMYHSRALQVVRARLGRTTCTKTQPNLDNCPFHDQPHLKRKAFCSFQIYAVPWQGTMTLSKSTCQDA
modifications: left off: small tags and cut ends
For the molecule B1, the “synthesis of DNA in HT1080 cells” value in the experiment on HT1080 cells is recorded as “failed to effect”. The “inactivation of cathepsin B” value in the experiment with cathepsin B is “unable to inactivate”. For the same molecule, the “TGF-β-stimulated NRK cell invasion through synthetic basement membranes” value in the experiment on NRK kidney fibroblasts is “inhibited significantly”.

B2: CystC: full-length human Cystatin C (SEQ ID NO:2), C-terminally Myc- and (His)6-tagged, retrovirally expressed and secreted by the cells (protein, listed as Homo sapiens)
chain: MAGPLRAPLLLLAILAVALAVSPAAGSSPGKPPRLVGGPMDASVEEEGVRRALDFAVGEYNKASNDMYHSRALQVVRARKQIVAGVNYFLDVELGRTTCTKTQPNLDNCPFHDQPHLKRKAFCSFQIYAVPWQGTMTLSKSTCQDA
modifications: C-terminal Myc and His6 tags
In the case of B2, in the experiment with 3T3-L1 cells [1], the “3T3-L1 cell DNA synthesis” value is reported as “failed to effect”. The “synthesis of DNA in HT1080 cells” value in the experiment with HT1080 cells is “failed to effect”. Moreover, the “3T3-L1 cell migration to fibronectin” value in the experiment on 3T3-L1 cells [2] is given as “failed to effect”. Also, in the experiment with NRK kidney fibroblasts, the “tonic NRK cell invasion” value is “inhibited significantly” and the “TGF-β-stimulated NRK cell invasion through synthetic basement membranes” value is reported as “inhibited significantly”. The “direct physical interaction with TGF-β1” value with TGF-β1 is recorded as “failed to demonstrate a direct physical interaction”.

The values above are taken from patent US8058396B2, “Cystatin C as an antagonist of TGF-β and methods related thereto” (National Jewish Health, priority 2003, dated 2011).
